{"source": "patent US20230248799A1", "about": "“COMBINATION THERAPY OF SUBSTANCE-P FOR MOBILIZATION OF HEMATOPOIETIC STEM CELLS” (ELPHIS CELL THERAPEUTICS, priority 2020, published 2023)", "molecules": {"B1": {"name": "G-CSF: recombinant granulocyte colony stimulating factor, a glycoprotein stimulating neutrophil progenitor cells and mature neutrophils (protein, UniProt P09919 31-207, looked up)", "Granulocyte …": "TPLGPASSLPQSFLLKCLEQVRKIQGDGAALQEKLVSECATYKLCHPEELVLLGHSLGIPWAPLSSCPSQALQLAGCLSQLHSGLFLYQGLLQALEGISPELGPTLDTLQLDVADFATTIWQQMEELGMAPALQPTQGAMPAFASAFQRRAGGVLVASHLQSFLEVSYRVLRHLAQP"}}, "key": {"[1]": {"system": "hematopoietic stem cells in the blood", "test": "Mobilization of hematopoietic stem cells by SP alone (HSC-CFU colony count of blood cells)", "type": "in vivo", "conditions": "rabbits; for level of hematopoietic stem cells in blood on the basis of 1X on day 0: intravenous (ear vein) twice, SP 6.7 µg/kg, G-CSF 10 µg/kg", "description": "In order to confirm the effect of the drug administered in a normal physiological state alone, the effect of SP was tested using a normal group without wounds. This is because, in the case of injured animals, there are many other factors secreted by the wounds, and, thus, it is difficult to differentiate such factors from the effect of the administered drug, and especially because both SP and G-CSF are endogenous substances in the body.\nTo confirm the effect of SP alone on mobilization of hematopoietic stem cell, five (5) rabbits were prepared for each group. SP (6.7 µg/kg, sigma Aldrich) was administered twice via Ear vein, and the levels of hematopoietic stem cells in the blood of the same animals for 3 days were compared.\nAfter injection of the drug, 5 ml of blood was collected once a day, put into a 15 ml tube (Falcon), and diluted twice by adding PBS (Welgene). To isolate blood cells, each of 5 ml Ficoll-Paque (Amersham) was placed in a new tube, and diluted blood was placed on top of it. The tubes were carefully handled so as not to mix the Ficoll layer and blood layer, and, after the blood layers were completely put in the tubes, centrifugation (813 g, Megafuge 8R, Thermo Scientific) was performed for 20 minutes. After centrifugation, the layers were separated, resulting in a total of four layers. The uppermost layer was plasma, the second layer was the blood cell layer excluding erythrocytes, the third layer was Ficoll, and the bottom layer was the erythrocyte layer. Among them, only the blood cell layer was separated and put into a tube, and PBS was then added thereto to centrifuge same. 5×10^6 blood cells were placed in a 35 mm plate and cultured in HSC-CFU media (Hematopoietic stem cells-colony forming unit media, purchased from Miltenyi). While the cells were cultured in the initial state for 2 weeks without exchanging the media, the number of colonies was observed every day and finally counted."}, "[2]": {"system": "immune cells in the blood", "test": "Effect of SP on blood immune cells (CBC count, percentages in total leukocytes)", "conditions": "rabbits, G-CSF 10 µg/kg intravenous twice; day 2", "experimental": "To confirm the effect of SP on the percentage of immune cells in blood, five (5) rabbits were prepared for each group. After administering SP (6.7 µg/kg) via ear vein twice, the percentages of immune cells in the blood of the same animals were compared for 3 days. G-CSF (10 µg/kg, JW Pham) was used at a conventional clinical dose and treated with the same regimen as that of SP (i.e., intravenous administration). After the administration, 1 ml of the blood was collected at one-day intervals, transferred to a tube containing EDTA and analyzed by using a diagnostic device."}}}
{"molecule": "B1", "values": [{"measurement": "level of hematopoietic stem cells in blood on the basis of 1X on day 0", "setting": "[1]; day 1", "result": 2, "unit": "X"}, {"measurement": "level of hematopoietic stem cells in blood on the basis of 1X on day 0", "setting": "[1]; day 2", "result": 2.5, "unit": "X"}, {"measurement": "level of hematopoietic stem cells in blood on the basis of 1X on day 0", "setting": "[1]; day 3", "result": 0.6, "unit": "X"}, {"measurement": "effect on mobilization of hematopoietic stem cells (in words)", "setting": "[1]; intravenous twice, followed for 3 days, FIG. 1", "result": "negligible effect on mobilization of hematopoietic stem cells"}, {"measurement": "increase of the percentage of neutrophils in the blood", "setting": "[2]", "result": "about 65%"}]}
